B1: AB-007028 (antibody, V domains shown)
VH: QMQLVESGGGVVQPGRSLRLSCAASGFTFSTYAMHWVRQAPGQGLQWVAVISYHSTNKYYEDSVRGRFTISRDNSKNTLYLQMNSLRAEDTAVYYCARDGYSSSFFDFWGQGTLVTVSS
VL: DIQMTQSPSTLSASVGDRVTITCRASQSISRWLAWYQQQPGKAPKLLMSGASVLESGVPSRFSGSGSGTEFTLTISSLQPDDFATYYCQHYNSYFVTFGQGTKVEIK
B2: AB-007047 (antibody, V domains shown)
VH: B1 VH with A23T, T31N, A40S
VL: B1 VL with T20A
B3: AB-007064 (antibody, V domains shown)
VH: B1 VH with A23T, A40S
VL: B1 VL with T20A, S49T
B4: AB-007038 (antibody, V domains shown)
VH: B1 VH with A23T, A40S, F108Y
VL: B1 VL with T20A
B5: AB-007036 (antibody, V domains shown)
VH: B1 VH with A23T, A40S, H54D
VL: B1 VL with T20A
B6: AB-007061 (antibody, V domains shown)
VH: B1 VH with A23T, A40S
VL: B1 VL with T20A, S30D
B7: AB-007069 (antibody, V domains shown)
VH: B1 VH with A23T, A40S
VL: B1 VL with T20A, G50V
B8: AB-007052 (antibody, V domains shown)
VH: B1 VH with A23T, A40S, T56N
VL: B1 VL with T20A
B9: AB-007062 (antibody, V domains shown)
VH: B1 VH with A23T, A40S
VL: B1 VL with T20A, R31S
B10: AB-007034 (antibody, V domains shown)
VH: B1 VH with M2V, Q46E, E61A
VL: B1 VL with M48I
B11: AB-007066 (antibody, V domains shown)
VH: B1 VH with A23T, A40S
VL: B1 VL with T20A, G50Q
B12: AB-007051 (antibody, V domains shown)
VH: B1 VH with A23T, A40S, T56R
VL: B1 VL with T20A
B13: AB-007040 (antibody, V domains shown)
VH: B1 VH with A23T, A40S
VL: B1 VL with T20A, F95Y
B14: AB-007063 (antibody, V domains shown)
VH: B1 VH with A23T, A40S
VL: B1 VL with T20A, S49A
B15: AB-007031 (antibody, V domains shown)
VH: B1 VH with A23T, A40S
VL: B1 VL with T20A, M48I
B16: AB-007073 (antibody, V domains shown)
VH: B1 VH with A23T, A40S
VL: B1 VL with T20A, Y94H
B17: AB-007043 (antibody, V domains shown)
VH: B1 VH with A23T, A40S
VL: B1 VL with T20A, S56D
B18: AB-007048 (antibody, V domains shown)
VH: B1 VH with A23T, A33S, A40S
VL: B1 VL with T20A
B19: AB-007032 (antibody, V domains shown)
VH: B1 VH with M2V
VL: B1 VL with M48I
B20: AB-007053 (antibody, V domains shown)
VH: B1 VH with A23T, A40S, N57Q
VL: B1 VL with T20A
B21: AB-007055 (antibody, V domains shown)
VH: B1 VH with A23T, A40S, S102T
VL: B1 VL with T20A
B22: AB-007058 (antibody, V domains shown)
VH: B1 VH with A23T, A40S, S103T
VL: B1 VL with T20A
B23: AB-007060 (antibody, V domains shown)
VH: B1 VH with A23T, A40S, F105Y
VL: B1 VL with T20A
B24: AB-007049 (antibody, V domains shown)
VH: B1 VH with A23T, A40S, Y53N, S55E
VL: B1 VL with T20A
B25: AB-007030 (antibody, V domains shown)
VH: B1 VH with A23T, A40S, Q46E, E61A
VL: B1 VL with T20A
B26: AB-007072 (antibody, V domains shown)
VH: B1 VH with A23T, A40S
VL: B1 VL with T20A, V53N
B27: AB-007039 (antibody, V domains shown)
VH: B1 VH with A23T, A40S
VL: B1 VL with T20A, F95S
B28: AB-007074 (antibody, V domains shown)
VH: B1 VH
VL: B1 VL with F95Y
B29: AB-007054 (antibody, V domains shown)
VH: B1 VH with A23T, A40S, S102A
VL: B1 VL with T20A
B30: AB-007037 (antibody, V domains shown)
VH: B1 VH with A23T, A40S, R65K
VL: B1 VL with T20A
B31: AB-007056 (antibody, V domains shown)
VH: B1 VH with A23T, A40S, S102Q
VL: B1 VL with T20A
B32: AB-007045 (antibody, V domains shown)
VH: B1 VH with A23T, A40S, G100A
VL: B1 VL with T20A
B33: AB-007071 (antibody, V domains shown)
VH: B1 VH with A23T, A40S
VL: B1 VL with T20A, V53S
B34: AB-007065 (antibody, V domains shown)
VH: B1 VH with A23T, A40S
VL: B1 VL with T20A, G50K
B35: AB-007044 (antibody, V domains shown)
VH: B1 VH with A23T, A40S, D62E
VL: B1 VL with T20A
B36: AB-007070 (antibody, V domains shown)
VH: B1 VH with A23T, A40S
VL: B1 VL with T20A, G50A
B37: AB-007042 (antibody, V domains shown)
VH: B1 VH with A23T, A40S
VL: B1 VL with T20A, S28D
B38: AB-007050 (antibody, V domains shown)
VH: B1 VH with A23T, A40S, Y53Q
VL: B1 VL with T20A
B39: AB-007057 (antibody, V domains shown)
VH: B1 VH with A23T, A40S, S102H
VL: B1 VL with T20A
B40: AB-007041 (antibody, V domains shown)
VH: B1 VH with A23T, T31D, A40S
VL: B1 VL with T20A
B41: AB-007033 (antibody, V domains shown)
VH: B1 VH with Q46E, E61A
VL: B1 VL
B42: AB-007068 (antibody, V domains shown)
VH: B1 VH with A23T, A40S
VL: B1 VL with T20A, G50L
B43: AB-007067 (antibody, V domains shown)
VH: B1 VH with A23T, A40S
VL: B1 VL with T20A, G50S
B44: AB-007059 (antibody, V domains shown)
VH: B1 VH with A23T, A40S, S104T
VL: B1 VL with T20A
B45: AB-007035 (antibody, V domains shown)
VH: B1 VH with A23T, T31S, A40S
VL: B1 VL with T20A
B46: AB-007046 (antibody, V domains shown)
VH: B1 VH with A23T, A40S
VL: B1 VL with T20A, N92Y

Numbering of substitutions follows the chain as printed.

For this assay, the target named is T1, CSP Protein (Plasmodium falciparum, UniProt Q7K740 19-374).
T1 construct: also called circumsporozoite protein; complete CSP protein
T1 sequence (Q7K740 19-374 limits assumed): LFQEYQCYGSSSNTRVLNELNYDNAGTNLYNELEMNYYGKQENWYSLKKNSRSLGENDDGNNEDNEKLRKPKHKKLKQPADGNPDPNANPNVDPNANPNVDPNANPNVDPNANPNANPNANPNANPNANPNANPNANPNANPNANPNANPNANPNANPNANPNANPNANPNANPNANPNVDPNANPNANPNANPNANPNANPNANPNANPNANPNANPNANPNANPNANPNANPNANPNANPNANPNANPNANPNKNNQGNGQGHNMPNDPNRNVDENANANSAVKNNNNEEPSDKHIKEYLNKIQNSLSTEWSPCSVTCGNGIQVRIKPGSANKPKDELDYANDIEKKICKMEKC
In words: SPR, antibody on chip.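 Further: antibodies immobilized on a Carterra chip, directly or via anti-human Fc capture, at two spots each, with CSP flowed over at 4-5 concentrations peaking at 0.5-8 µg/mL.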
Experimental: For SPR, each antibody was either directly coupled to a Carterra Chip or coupled using a goat anti-human Fc antibody. The uncoupled antibodies were washed off and various concentration gradients of the targets were flowed over the antibodies, where the highest concentration of each target was in the range 0.5-8 μg/mL. Each antibody was immobilized in two different locations on the chip to allow for duplicate measurements. The affinity for each antibody-target combination was determined using 4-5 target concentrations in Mathematica software. If variation between the two duplicates was >3-fold, the antibody-target measurement was repeated.
The molecule B1 registered a Kd of 0.0457 nM.

In turn, B2 came in with a Kd of 0.175 nM.

The molecule B3 registered an equilibrium dissociation constant (Kd) of 0.556 nM. Against the preceding molecule, the Kd is about 3.2-fold higher.

The molecule B4 came in with a Kd of 0.029 nM.

In turn, B5 gave a Kd of 0.0967 nM.

Turning to B6, the Kd came to 0.0504 nM.

Turning to B7, the affinity, expressed as Kd, was 0.174 nM.

B8 showed a dissociation constant Kd of 0.0261 nM. This Kd is about 6.7-fold lower than that of the molecule before.

On to B9, for which binding was put at a Kd of 0.0849 nM. This Kd lies about 3.3-fold higher than the previous one.

B10 showed a Kd of 0.0824 nM.

Molecule B11 gave a Kd of 0.376 nM.

For the molecule B12, binding was characterised by a dissociation constant (Kd) of 0.0414 nM.

The molecule B13 gave a Kd of 0.0447 nM.

Turning to B14, the affinity, expressed as Kd, was 0.0524 nM. This Kd and that of the molecule before are within 1.5-fold of each other.

In the case of B15, the Kd was 0.0496 nM.

Molecule B16 had a Kd of 0.0816 nM.

In the case of B17, the Kd amounted to 0.0426 nM.

B18 came in with a Kd of 0.437 nM.

The molecule B19 came in with a Kd of 0.0469 nM.

In turn, B20 yielded a Kd of 0.298 nM. This Kd is about 6.4-fold higher than that of the molecule before.

Molecule B21 came in with a Kd of 0.374 nM.

As to B22, the Kd came out at 0.149 nM.

As for B23, binding was characterised by a dissociation constant (Kd) of 0.199 nM. The Kd values of the last two molecules are within 1.5-fold of each other.

In turn, B24 returned a Kd of 0.152 nM.

As for B25, binding was put at a Kd of 0.132 nM.

As to B26, binding was characterised by a dissociation constant (Kd) of 0.194 nM.

For the molecule B27, the Kd came out at 0.106 nM.

As to B28, the affinity, expressed as Kd, was 0.0415 nM. Against the preceding molecule, the Kd is about 2.6-fold lower.

As to B29, the Kd is 0.17 nM. This Kd is about 4.1-fold higher than that of the molecule before.

The molecule B30 gave a dissociation constant Kd of 0.0346 nM. This Kd lies about 4.9-fold lower than the previous one.

B31 gave a Kd of 0.042 nM.

In turn, B32 came in with a Kd of 0.284 nM. Compared with the last molecule, the Kd is about 6.8-fold higher.

Turning to B33, the Kd was determined as 0.0683 nM.

B34 came in with a Kd of 0.454 nM.

With B35, the Kd is 0.0319 nM. Against the preceding molecule, the Kd is about 14-fold lower.

Consider B36, for which the affinity, expressed as Kd, was 0.177 nM.

In the case of B37, the affinity, expressed as Kd, was 0.034 nM. This Kd lies about 5.2-fold lower than the previous one.

The molecule B38 had a Kd of 0.147 nM.

Regarding B39, the Kd came to 0.153 nM. This Kd and that of the molecule before are within 1.5-fold of each other.

B40 gave a Kd of 0.0439 nM.

In turn, B41 yielded a Kd of 0.0408 nM.

Molecule B42 returned a Kd of 0.152 nM. This Kd lies about 3.7-fold higher than the previous one.

In the case of B43, the Kd amounted to 0.0877 nM.

For the molecule B44, the Kd was 1.08 nM. Against the preceding molecule, the Kd is about 12-fold higher.

B45 had a dissociation constant Kd of 0.0513 nM.

B46 yielded a Kd of 0.0364 nM. This Kd and that of the molecule before are within 1.5-fold of each other.

These data come from US20220195023A1 (ATRECA, published 2022).
